In patent US20080090254:

B1: IGF-1Receptor Kinase (protein)
chain: RKRNNSRLGNGVLYASVNPEYFSAADVYVPDEWEVAREKITMSRELGQGSFGMVYEGVAKGVVKDEPETRVAIKTVNEAASMRERIEFLNEASVMKEFNCHHVVRLLGVVSQGQPTLVIMELMTRGDLKSYLRSLRPEMENNPVLAPPSLSKMIQMAGEIADGMAYLNANKFVHRDLAARNCMVAEDFTVKIGDFGMTRDIYETDYYRKGGKGLLPVRWMSPESLKDGVFTTYSDVWSFGVVLWEIATLAEQPYQGLSNEQVLRFVMEGGLLDKPDNCPDMLFELMRMCWQYNPKMRPSFLEIISSIKEEMEPGFREVSFYYSEENKLPEPEELDLEPENMESVPLDPSASSSSLPLPDRHSGHKAENGPGPGVLVLRASFDERQPYAHMNGGRKNERALPLPQSSTC
B2: VEGF Receptor 1 Kinase (protein)
chain: RKMKRSSSEIKTDYLSIIMDPDEVPLDEQCERLPYDASKWEFARERLKLGKSLGRGAFGKVVQASAFGIKKSPTCRTVAVKMLKEGATASEYKALMTELKILTHIGHHLNVVNLLGACTKQGGPLMVIVEYCKYGNLSNYLKSKRDLFFLNKDAALHMEPKKEKMEPGLEQGKKPRLDSVTSSESFASSGFQEDKSLSDVEEEEDSDGFYKEPITMEDLISYSFQVARGMEFLSSRKCIHRDLAARNILLSENNVVKICDFGLARDIYKNPDYVRKGDTRLPLKWMAPESIFDKIYSTKSDVWSYGVLLWEIFSLGGSPYPGVQMDEDFCSRLREGMRMRAPEYSTPEIYQIMLDCWHRDPKERPRFAELVEKLGDLLQANVQQDGKDYIPINAILTGNSGFTYSTPAFSEDFFKESISAPKFNSGSSDDVRYVNAFKFMSLERIKTFEELLPNATSMFDDYQGDSSTLLASPMLKRFTWTDSKPKASLKIDLRVTSKSKESGLSDVSRPSFCHSSCGHVSEGKRRFTYDHAELERKIACCSPPPDYNSVVLYSTPPI
B3: PDGF Receptor β Kinase (protein)
chain: RYEIRWKVIESVSSDGHEYIYVDPMQLPYDSTWELPRDQLVLGRTLGSGAFGQVVEATAHGLSHSQATMKVAVKMLKSTARSSEKQALMSELKIMSHLGPHLNVVNLLGACTKGGPIYIITEYCRYGDLVDYLHRNKHTFLQHHSDKRRPPSAELYSNALPVGLPLPSHVSLTGESDGGYMDMSKDESVDYVPMLDMKGDVKYADIESSNYMAPYDNYVPSAPERTCRATLINESPVLSYMDLVGFSYQVANGMEFLASKNCVHRDLAARNVLICEGKLVKICDFGLARDIMRDSNYISKGSTFLPLKWMAPESIFNSLYTTLSDVWSFGILLWEIFTLGGTPYPELPMNEQFYNAIKRGYRMAQPAHASDEIYEIMQKCWEEKFEIRPPFSQLVLLLERLLGEGYKKKYQQVDEEFLRSDHPAILRSQARLPGFHGLRSPLDTSSVLYTAVQPNEGDNDYIIPLPDPKPEVADEGPLEGSPSLASSTLNEVNTSSTISCDSPLEPQDEPEPEPQLELQVEPEPELEQLPDSGCPAPRAEAEDSFL
B4: ErbB4 Kinase (protein)
chain: RRKSIKKKRALRRFLETELVEPLTPSGTAPNQAQLRILKETELKRVKVLGSGAFGTVYKGIWVPEGETVKIPVAIKILNETTGPKANVEFMDEALIMASMDHPHLVRLLGVCLSPTIQLVTQLMPHGCLLEYVHEHKDNIGSQLLLNWCVQIAKGMMYLEERRLVHRDLAARNVLVKSPNHVKITDFGLARLLEGDEKEYNADGGKMPIKWMALECIHYRKFTHQSDVWSYGVTIWELMTFGGKPYDGIPTREIPDLLEKGERLPQPPICTIDVYMVMVKCWMIDADSRPKFKELAAEFSRMARDPQRYLVIQGDDRMKLPSPNDSKFFQNLLDEEDLEDMMDAEEYLVPQAFNIPPPIYTSRARIDSNRSEIGHSPPPAYTPMSGNQFVYRDGGFAAEQGVSVPYRAPTSTIPEAPVAQGATAEIFDDSCCNGTLRKPVAPHVQEDSSTQRYSADPTVFAPERSPRGELDEEGYMTPMRDKPKQEYLNPVEENPFVSRRKNGDLQALDNPEYHNASNGPPKAEDEYVNEPLYLNTFANTLGKAEYLKNNILSMPEKAKKAFDNPDYWNHSLPPRSTLQHPDYLQEYSTKYFYKQNGRIRPIVAENPEYLSEFSLKPGTVLPPPPYRHRNTVV

molecular target: GST-poly(Glu, Tyr) substrate
Sequence (chain, as listed by the source): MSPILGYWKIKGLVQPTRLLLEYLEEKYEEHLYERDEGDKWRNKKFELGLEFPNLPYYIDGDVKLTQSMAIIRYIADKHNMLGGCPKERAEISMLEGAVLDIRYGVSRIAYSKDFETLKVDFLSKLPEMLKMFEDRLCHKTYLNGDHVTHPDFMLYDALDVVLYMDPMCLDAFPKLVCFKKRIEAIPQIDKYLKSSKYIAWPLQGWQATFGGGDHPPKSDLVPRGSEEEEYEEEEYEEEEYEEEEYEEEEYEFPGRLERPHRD

Protein	phosphorylation of the substrate, Western blotting with anti-phosphotyrosine
B1	At + of all (i to vii) of FIG. 1, a single band was seen at positions where the phosphorylated GST-poly (Glu, Tyr) substrate appears
B2	At + of all (i to vii) of FIG. 1, a single band was seen at positions where the phosphorylated GST-poly (Glu, Tyr) substrate appears
B3	At + of all (i to vii) of FIG. 1, a single band was seen at positions where the phosphorylated GST-poly (Glu, Tyr) substrate appears
B4	At + of all (i to vii) of FIG. 1, a single band was seen at positions where the phosphorylated GST-poly (Glu, Tyr) substrate appears
